Assay results: paper PMC4677347

Key:
[1] = target: human proteasome α6 subunit, short isoform (human) (UniProt P25786); test: native MS; α6 alone at 5, 10 and 20 μM monomer, 150 mM ammonium acetate pH 7.5, nanoflow ESI under non-denaturing conditions
[2] = target: human proteasome α7 subunit (human) (UniProt P25788); test: AUC; sedimentation velocity, mixture of α7 and α6 at 1:4 molar ratio (α7 tetradecamer to α6 monomer), 150 mM potassium phosphate pH 7.4, 25,000 rpm
[3] = target: human proteasome α7 subunit (human) (UniProt P25788); test: native MS; α7 (2 μM tetradecamer) mixed with α6 (0.5, 1, 2, 4 and 8 μM monomer) at pH 7.5, incubated at 20 °C for 1 h, nanoflow ESI under non-denaturing conditions
[4] = target: human proteasome α6 subunit, short isoform (human) (UniProt P25786); test: AUC; sedimentation velocity, α6 alone, 150 mM potassium phosphate pH 7.4, 55,000 rpm, c(s) analysis in SEDFIT
[5] = target: human proteasome α7 subunit (human) (UniProt P25788); test: AUC; sedimentation velocity, α7 alone, 150 mM potassium phosphate pH 7.4, 25,000 rpm, c(s) analysis in SEDFIT
[6] = target: human proteasome α7 subunit (human) (UniProt P25788); test: native MS; α7 alone, 28 μM monomer, 10 mM ammonium acetate pH 6.8, nanoflow ESI under non-denaturing conditions

| stoichiometry N [1] | stoichiometry N [2] | stoichiometry N [3] | stoichiometry N [4] | stoichiometry N [5] | stoichiometry N [6] | Substance |
| --- | --- | --- | --- | --- | --- | --- |
| 2 | 7 α7 per α6 | 7 α7 per α6 | 2 |  |  | human proteasome α6 subunit, short isoform (from UniProt P25786 1-263) (natural protein) |
|  | 7 | 7 |  | 14 | 14 | human proteasome α7 subunit (from UniProt P25788 1-255) (natural protein) |
